Experimental data: PMC10450190, “RIG-I recognizes metabolite-capped RNAs as signaling ligands”

Molecular target: T1, RIG-I (UniProt O95786 1-925)
T1 sequence: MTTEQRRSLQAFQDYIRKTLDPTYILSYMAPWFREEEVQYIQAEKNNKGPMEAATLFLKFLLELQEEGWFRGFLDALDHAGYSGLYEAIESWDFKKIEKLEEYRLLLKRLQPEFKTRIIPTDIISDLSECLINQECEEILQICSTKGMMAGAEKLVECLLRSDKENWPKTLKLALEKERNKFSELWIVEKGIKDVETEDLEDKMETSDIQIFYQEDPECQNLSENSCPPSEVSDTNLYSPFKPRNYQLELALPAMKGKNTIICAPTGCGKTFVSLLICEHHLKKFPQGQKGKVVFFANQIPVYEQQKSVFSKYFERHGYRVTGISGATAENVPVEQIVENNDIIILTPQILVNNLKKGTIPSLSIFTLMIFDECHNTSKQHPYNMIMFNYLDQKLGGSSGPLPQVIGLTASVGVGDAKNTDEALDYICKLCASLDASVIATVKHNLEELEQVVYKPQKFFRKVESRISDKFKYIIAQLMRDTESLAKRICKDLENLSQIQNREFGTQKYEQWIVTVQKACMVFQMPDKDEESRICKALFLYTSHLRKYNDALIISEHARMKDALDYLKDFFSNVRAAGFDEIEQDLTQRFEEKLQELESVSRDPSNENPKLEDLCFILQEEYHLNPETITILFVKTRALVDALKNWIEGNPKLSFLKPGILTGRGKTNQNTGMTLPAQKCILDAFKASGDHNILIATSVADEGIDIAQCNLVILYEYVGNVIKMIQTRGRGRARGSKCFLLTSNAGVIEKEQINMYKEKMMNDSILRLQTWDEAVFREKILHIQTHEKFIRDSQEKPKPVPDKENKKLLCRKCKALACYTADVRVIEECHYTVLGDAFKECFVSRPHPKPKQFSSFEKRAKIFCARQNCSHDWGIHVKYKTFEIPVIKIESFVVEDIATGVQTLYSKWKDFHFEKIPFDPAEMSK
Test: competition (fluorescence polarization); 0.5 mM ATP; vs labeled 5' PPP ds39; 50 mM MOPS pH 7.4, 5 mM DTT, 5 mM MgCl2, 0.01% Tween20; 25 C (ATPase, 2 mM ATP; FP, 0.5 mM ATP); EMSA 4 C with 2 mM ATP, 75 nM RIG-I, 25 nM RNA
Details: protein: recombinant; tags: none (6xHis-SUMO removed by Ulp1); label: none; single-stranded

B1: 5' PPP ss39 (ssRNA)
RNA: AGUUGGUGGUUGUUGUGUGUUUGUGGUUGGUUUGUUUGG
modifications: 5' triphosphate
Does B1 bind?
Result: no binding

B2: 5' NAD+ ss39 (ssRNA)
RNA: B1 RNA
modifications: 5' NAD+ cap
Does B2 bind?
Result: no binding
